Measured values: patent US20230338589A1

Tests used:
[1] = target: T1, interferon gamma (IFN-γ), murine, recombinant (mouse) (UniProt P01580); test: Octet (BLI) analysis of binding affinity; format not stated
T1 sequence (looked up): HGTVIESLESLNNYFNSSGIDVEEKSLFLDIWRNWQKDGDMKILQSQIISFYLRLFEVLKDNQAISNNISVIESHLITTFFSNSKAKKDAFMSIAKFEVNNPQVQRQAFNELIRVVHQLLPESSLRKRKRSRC

[2] = target: T1, interferon gamma (IFN-γ), murine, recombinant (mouse); test: cell-based or functional assay
[3] = target: T1, interferon gamma (IFN-γ), murine, recombinant (mouse); test: radioligand cell assay: TUBO cells preincubated with recombinant IFN-γ (10 ng/mL), washed, then incubated with tracer 1 h at 37 C; acid-wash fraction read by gamma counter; background without IFN-γ 1.13 ± 0.28%

“anti-IFN-γ diabody (homodimer of the single chain Fv derived from clone AN18, produced in CHO cells)” gave a Kd [1] of 37.9 nM.

B1: ^89Zr-anti-IFN-γ labeled-antibody conjugate (AN-18 conjugated to p-SCN-Bn-desferrioxamine and labeled with ^89Zr) (antibody, rat IgG1, V domains shown)
VH: QVQLKESGPGLVQPSQTLSLTCTVSGFSLDSYNVHWVRQPPGKGLEWMGRMKYNGDTSYNSALKSRLRISRDTSKNQVFLKMNSLQTDDTGTYYCTRDWHYGYPSPYFEFWGQGVMVTVSS
VL: DVQMTQSPSYLAASPGESVSISCKASKNINTYLAWYQEKPGKTNKLLIYSGSTLQSGTPSRFSGSGSGTDFTLTIRSLEPEDFAVYYCQQHNEYPLTFGSGTKLEVKR
modifications: p-SCN-Bn-Desferrioxamine (DFO) conjugated to the antibody (Ab:DFO 1:5), chelating ^89Zr; sites not stated
In the case of B1, the internalization (% internalized activity) in TUBO cells preincubated with IFN-γ [2] is reported as 3.93% and the surface binding (% of activity) [3] is reported as 13.6%.
